# B1: 抗Claudin18.2小鼠单克隆抗体m1D6 (antibody, V domains shown)
# VH: QVQLQQPGPELVMPGASVKLSCKASGYTFTSYRMHWVKQRPGQGLEWIGEIDPSNSYTNYNQNFRGRSTLTVDKSSSTAYMQLSSLTSGDSAVYYCARLGRGNTLGYWGQGTSVTVSS
# VL: DIVMTQSPSSLTVTAGEKVTVGCKSSQSLLNSGNQKNYLTWYQQKPGQPPKLLIYWASTRESGVPDRFTGSGSGTDFTLTIRSVQAEDLAVYYCQNGYSYPFTFGSGTKLEIKR
# notes: Both printed entries appear to start with a leader peptide ahead of the variable region; For in vivo imaging the antibody was labelled with Dylight680
# Target: T1, Claudin18.2 on 人胃癌NUGC4细胞 (human, UniProt P56856-2 1-261)
# T1 construct: whole, on cells
# T1 sequence (looked up): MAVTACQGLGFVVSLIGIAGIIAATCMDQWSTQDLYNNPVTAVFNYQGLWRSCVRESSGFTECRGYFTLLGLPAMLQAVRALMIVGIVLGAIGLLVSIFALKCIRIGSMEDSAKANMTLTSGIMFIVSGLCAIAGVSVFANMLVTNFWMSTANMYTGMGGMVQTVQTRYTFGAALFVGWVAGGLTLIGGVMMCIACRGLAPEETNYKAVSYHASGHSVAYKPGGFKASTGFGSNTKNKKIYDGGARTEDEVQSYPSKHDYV
# Assay: flow cytometry on NUGC4 cells, anti-mouse IgG Fc-FITC
binder,measurement,value
B1,binding result,binds

# From CN117567625A (INST MED BIOTECHNOLOGY CAMS, dated 2024)
